The record followed here is PMC7153833.

For assay [1], the target named is hyper-galactosylated (G2 F) variant of the mAb. Briefly: native MS.
The target of assay [2] is α-2,6-sialic acid variant (ST6) of the mAb. The assay is described as follows: native MS.

For “recombinant Human Fc gamma RIIIa/CD16a (V176) protein (from UniProt P08637 17-208) (receptor)”, the fold change of binding affinity against G0 F in assay [1] is 1.5 fold. This substance also displayed a fold change of binding affinity against ST3 in assay [2] of 1.72 fold.
